Experimental data as given in patent US5162203A, “Methods of measuring isozymes and isozyme classes of alcohol dehydrogenase” (President and Fellows of Harvard College, priority 1989, dated 1992).

Key:
Assay type in all cases: biochemical, human
[1] = substrate: COc1ccc2cc(C=O)ccc2c1; assay: Kinetics of enzymatic reduction of methoxynaphthaldehydes by γ1γ1 ADH; conditions: other: pH 7.0, 50 μM NADH, fluorometric, 25.0 °C
[2] = substrate: COc1ccc(C=O)c2ccccc12; assay: as above; conditions: other: pH 7.0, 50 μM NADH, fluorometric, 25.0 °C
[3] = substrate: COc1ccc2cc(C=O)ccc2c1; assay: Kinetics of enzymatic reduction of methoxynaphthaldehydes by Class III ADH; conditions: other: pH 7.0, 50 μM NADH, 25.0 °C
[4] = substrate: COc1ccc2cc(C=O)ccc2c1; assay: Kinetics of enzymatic reduction of methoxynaphthaldehydes by β1γ1 ADH; conditions: other: pH 7.0, 50 μM NADH, fluorometric, 25.0 °C
[5] = substrate: COc1ccc(C=O)c2ccccc12; assay: as above; conditions: other: pH 7.0, 50 μM NADH, fluorometric, 25.0 °C
[6] = substrate: COc1ccc2cc(C=O)ccc2c1; assay: Kinetics of enzymatic reduction of methoxynaphthaldehydes by Class II ADH; conditions: other: pH 7.0, 50 μM NADH; spectrophotometric; pH 7.0; 25.0 °C
[7] = substrate: COc1ccc(C=O)c2ccccc12; assay: as above; conditions: 25.0 °C
[8] = substrate: COc1ccc2cc(C=O)ccc2c1; assay: Kinetics of enzymatic reduction of methoxynaphthaldehydes by αβ1 ADH; conditions: other: pH 7.0, 50 μM NADH, spectrophotometric, 25.0 °C
Protocol: (§1) Standard assays for ethanol oxidation activity (Dalziel, 1957, Acta Chem Scand 11:1706-23) were carried out on a Cary 219 spectrophotometer interfaced with an Apple IIe microcomputer, using software provided by Varian Associates. The reaction mixture contained 2.5 mM NAD^+ in 0.1M glycine-NaOH buffer. pH 10.0, and 33 mM or 0.2M ethanol for Class I and Class II ADH, respectively.
(§2) Aldehyde reduction was monitored by following the decrease of absorption at 340 nm in 40 mM Mes buffer, pH 7.1. in the presence of saturating NADH, 50 μM for Class I and 100 μM for Class II. […] Initial reaction rates were measured and kinetic parameters determined by conventional procedures as described by Segel, 1975, Enzyme Kinetics, pp. 591-597, Wiley, N.Y.
(§3) All reaction mixtures (3 ml total volume) were prepared directly in 1 cm pathlength, 4 ml fluorometric cuvettes by adding 150 μl of the 300 μM substrate solution (e.g substrate IA or IIA) 100 μl of the 1 mM NADH solution (prepared as in part 5 above) and 2.69 ml of assay buffer (0.1M phosphate, pH 7.6). After thermal equilibration (25° C.) for 5 minutes, 60 μl of isozyme sample (either serum or purified ADH isozymes) was added to the cuvette.
(§4) The linear increase of fluorescence was then recorded for 1-10 minutes, until 0.03-1 μM of substrate was consumed. Larger substrate consumption was not found to be desirable (described in subpart (c) below). After this period the instrument sensitivity setting was reduced 10-30 fold, the signal compensated once again by zero suppression (see part 6 above), and 60 μl of 200-400 μM product (e.g., product IB or IIB) was added to provide an internal standard. The added product fluorescence intensity was then measured Fluorescence measurements were optimized for samples with low activity (<1 nM/minute). […] Rates measured in the presence of the 0.2 mM ADH inhibitors. […]
(§5) The rates of aldehyde reduction, determined as initial velocities (V) and expressed in units of nM/minute, were calculated according to: [formula] where the quantity in parentheses is the slope of the linear fluorescence increase calculated from the quantities Ft and FO, the fluorescence at time t and at the beginning of the reaction, respectively. Cst is the concentration of the product used as a standard added to the cuvette after the initial rate had been measured and Fst is the fluorescence intensity of the added product
(§6) Additionally the reaction rates for these isozymes were compared to those measured by the standard assay for ethanol oxidation (see part 7 above) at pH 10.0 the optimum for oxidation of ethanol by ADH. The rate of IA reduction for all Class I isozymes except the β1 β1 form is 1.5- to 4-fold faster than that of ethanol oxidation as measured by the conventional ethanol oxidation assay. […]

[9] = substrate: COc1ccc(C=O)c2ccccc12; assay: as above; conditions: other: pH 7.0, 50 μM NADH, spectrophotometric, 25.0 °C
Protocol: as §1, §2, §3, §4, §5, §6

[10] = substrate: COc1ccc2cc(C=O)ccc2c1; assay: Kinetics of enzymatic reduction of methoxynaphthaldehydes by αγ1 ADH; conditions: other: pH 7.0, 50 μM NADH, fluorometric, 25.0 °C
[11] = substrate: COc1ccc(C=O)c2ccccc12; assay: as above; conditions: other: pH 7.0, 50 μM NADH, fluorometric, 25.0 °C
[12] = other: pH 7.0, 50 μM NADH, spectrophotometric, pH 7.0

B1: γ1 γ1 ADH (Class I) (Homo sapiens) (protein)
chain: STAGKVIKCKAAVLWELKKPFSIEEVEVAPPKAHEVRIKMVAAGICRSDEHVVSGNLVTPLPVILGHEAAGIVESVGEGVTTVKPGDKVIPLFTPQCGKCRICKNPESNYCLKNDLGNPRGTLQDGTRRFTCSGKPIHHFVGVSTFSQYTVVDENAVAKIDAASPLEKVCLIGCGFSTGYGSAVKVAKVTPGSTCAVFGLGGVGLSVVMGCKAAGAARIIAVDINKDKFAKAKELGATECINPQDYKKPIQEVLKEMTDGGVDFSFEVIGRLDTMMASLLCCHEACGTSVIVGVPPDSQNLSINPMLLLTGRTWKGAIFGGFKSKESVPKLVADFMAKKFSLDALITNILPFEKINEGFDLLRSGKSIRTVLTF
notes: gamma1 allele (ADH1C*1, Arg271 and Ile349 in mature count)
[1]
  Km: 0.35 µM
  kcat: 1.83 s⁻¹
[2]
  Km: 2.30 µM
  kcat: 10.2 s⁻¹

B2: Class III (.chi.) ADH (Homo sapiens) (protein)
chain: MANEVIKCKAAVAWEAGKPLSIEEIEVAPPKAHEVRIKIIATAVCHTDAYTLSGADPEGCFPVILGHEGAGIVESVGEGVTKLKAGDTVIPLYIPQCGECKFCLNPKTNLCQKIRVTQGKGLMPDGTSRFTCKGKTILHYMGTSTFSEYTVVADISVAKIDPLAPLDKVCLLGCGISTGYGAAVNTAKLEPGSVCAVFGLGGVGLAVIMGCKVAGASRIIGVDINKDKFARAKEFGATECINPQDFSKPIQEVLIEMTDGGVDYSFECIGNVKVMRAALEACHKGWGVSVVVGVAASGEEIATRPFQLVTGRTWKGTAFGGWKSVESVPKLVSEYMSKKIKVDEFVTHNLSFDEINKAFELMHSGKSIRTVVKI
[3]
  kcat/Km: 830 M⁻¹ s⁻¹

B3: β1 γ1 ADH (Class I) (Homo sapiens) (protein)
chain 1: MSTAGKVIKCKAAVLWEVKKPFSIEDVEVAPPKAYEVRIKMVAVGICHTDDHVVSGNLVTPLPVILGHEAAGIVESVGEGVTTVKPGDKVIPLFTPQCGKCRVCKNPESNYCLKNDLGNPRGTLQDGTRRFTCRGKPIHHFLGTSTFSQYTVVDENAVAKIDAASPLEKVCLIGCGFSTGYGSAVNVAKVTPGSTCAVFGLGGVGLSAVMGCKAAGAARIIAVDINKDKFAKAKELGATECINPQDYKKPIQEVLKEMTDGGVDFSFEVIGRLDTMMASLLCCHEACGTSVIVGVPPASQNLSINPMLLLTGRTWKGAVYGGFKSKEGIPKLVADFMAKKFSLDALITHVLPFEKINEGFDLLHSGKSIRTVLTF
chain 2: MSTAGKVIKCKAAVLWELKKPFSIEEVEVAPPKAHEVRIKMVAAGICRSDEHVVSGNLVTPLPVILGHEAAGIVESVGEGVTTVKPGDKVIPLFTPQCGKCRICKNPESNYCLKNDLGNPRGTLQDGTRRFTCSGKPIHHFVGVSTFSQYTVVDENAVAKIDAASPLEKVCLIGCGFSTGYGSAVKVAKVTPGSTCAVFGLGGVGLSVVMGCKAAGAARIIAVDINKDKFAKAKELGATECINPQDYKKPIQEVLKEMTDGGVDFSFEVIGRLDTMMASLLCCHEACGTSVIVGVPPDSQNLSINPMLLLTGRTWKGAIFGGFKSKESVPKLVADFMAKKFSLDALITNILPFEKINEGFDLLRSGKSIRTVLTF
notes: beta1 (ADH1B*1) and gamma1 (ADH1C*1) alleles
[4]
  Km: 0.40 µM
  kcat: 2.83 s⁻¹
[5]
  Km: 0.60 µM
  kcat: 4.42 s⁻¹

B4: Class II (π) ADH (Homo sapiens) (protein)
chain: MGTKGKVIKCKAAIAWEAGKPLCIEEVEVAPPKAHEVRIQIIATSLCHTDATVIDSKFEGLAFPVIVGHEAAGIVESIGPGVTNVKPGDKVIPLYAPLCRKCKFCLSPLTNLCGKISNLKSPASDQQLMEDKTSRFTCKGKPVYHFFGTSTFSQYTVVSDINLAKIDDDANLERVCLLGCGFSTGYGAAINNAKVTPGSTCAVFGLGGVGLSAVMGCKAAGASRIIGIDINSEKFVKAKALGATDCLNPRDLHKPIQEVIIELTKGGVDFALDCAGGSETMKAALDCTTAGWGSCTFIGVAAGSKGLTIFPEELIIGRTINGTFFGGWKSVDSIPKLVTDYKNKKFNLDALVTHTLPFDKISEAFDLMNQGKSVRTILIF
[6]
  Km: 2.6 µM
  kcat: 25 s⁻¹
[7]; other: Class II
  kcat: 0.667 s⁻¹
[7]; [12]
  Km: 20.0 µM
  kcat: 0.833 s⁻¹

B5: αβ1 ADH (Class I) (Homo sapiens) (protein)
chain 1: STAGKVIKCKAAVLWELKKPFSIEEVEVAPPKAHEVRIKMVAVGICGTDDHVVSGTMVTPLPVILGHEAAGIVESVGEGVTTVKPGDKVIPLAIPQCGKCRICKNPESNYCLKNDVSNPQGTLQDGTSRFTCRRKPIHHFLGISTFSQYTVVDENAVAKIDAASPLEKVCLIGCGFSTGYGSAVNVAKVTPGSTCAVFGLGGVGLSAIMGCKAAGAARIIAVDINKDKFAKAKELGATECINPQDYKKPIQEVLKEMTDGGVDFSFEVIGRLDTMMASLLCCHEACGTSVIVGVPPDSQNLSMNPMLLLTGRTWKGAILGGFKSKECVPKLVADFMAKKFSLDALITHVLPFEKINEGFDLLHSGKSIRTILMF
chain 2: STAGKVIKCKAAVLWEVKKPFSIEDVEVAPPKAYEVRIKMVAVGICHTDDHVVSGNLVTPLPVILGHEAAGIVESVGEGVTTVKPGDKVIPLFTPQCGKCRVCKNPESNYCLKNDLGNPRGTLQDGTRRFTCRGKPIHHFLGTSTFSQYTVVDENAVAKIDAASPLEKVCLIGCGFSTGYGSAVNVAKVTPGSTCAVFGLGGVGLSAVMGCKAAGAARIIAVDINKDKFAKAKELGATECINPQDYKKPIQEVLKEMTDGGVDFSFEVIGRLDTMMASLLCCHEACGTSVIVGVPPASQNLSINPMLLLTGRTWKGAVYGGFKSKEGIPKLVADFMAKKFSLDALITHVLPFEKINEGFDLLHSGKSIRTVLTF
notes: beta1 allele (ADH1B*1, Arg47 and Arg369 in mature count)
[8]
  Km: 11.5 µM
  kcat: 2.67 s⁻¹
[9]
  Km: 8.5 µM
  kcat: 7.5 s⁻¹

B6: αγ1 ADH (Class I) (Homo sapiens) (protein)
chain 1: STAGKVIKCKAAVLWELKKPFSIEEVEVAPPKAHEVRIKMVAVGICGTDDHVVSGTMVTPLPVILGHEAAGIVESVGEGVTTVKPGDKVIPLAIPQCGKCRICKNPESNYCLKNDVSNPQGTLQDGTSRFTCRRKPIHHFLGISTFSQYTVVDENAVAKIDAASPLEKVCLIGCGFSTGYGSAVNVAKVTPGSTCAVFGLGGVGLSAIMGCKAAGAARIIAVDINKDKFAKAKELGATECINPQDYKKPIQEVLKEMTDGGVDFSFEVIGRLDTMMASLLCCHEACGTSVIVGVPPDSQNLSMNPMLLLTGRTWKGAILGGFKSKECVPKLVADFMAKKFSLDALITHVLPFEKINEGFDLLHSGKSIRTILMF
chain 2: STAGKVIKCKAAVLWELKKPFSIEEVEVAPPKAHEVRIKMVAAGICRSDEHVVSGNLVTPLPVILGHEAAGIVESVGEGVTTVKPGDKVIPLFTPQCGKCRICKNPESNYCLKNDLGNPRGTLQDGTRRFTCSGKPIHHFVGVSTFSQYTVVDENAVAKIDAASPLEKVCLIGCGFSTGYGSAVKVAKVTPGSTCAVFGLGGVGLSVVMGCKAAGAARIIAVDINKDKFAKAKELGATECINPQDYKKPIQEVLKEMTDGGVDFSFEVIGRLDTMMASLLCCHEACGTSVIVGVPPDSQNLSINPMLLLTGRTWKGAIFGGFKSKESVPKLVADFMAKKFSLDALITNILPFEKINEGFDLLRSGKSIRTVLTF
notes: as for B1
[10]
  Km: 0.58 µM
  kcat: 2.5 s⁻¹
[11]
  Km: 2.8 µM
  kcat: 8.33 s⁻¹
